The values that follow come from patent publication US20150210998A1.

No end group written: not given here.

This assay addresses His6-E6AP ligase (full-length, baculovirus-expressed) (human) (UniProt Q05086). The assay is described as follows: inhibition of His6-E6AP-catalyzed 125I-polyubiquitin chain formation, semi-reciprocal plot; non-competitive versus UbcH7.

On to Ac-NRIRMYSERRITVLYSL [N-acetyl-… peptide], for which the Ki came out at 22 µM.

A word on the Ki: it is the equilibrium dissociation constant of an inhibitor or competing ligand from its target. A low value points to higher affinity.
